Consider 1 molecule from US20190218261A1, “TARGETED ENHANCED DNA DEMETHYLATION” (The Jackson Laboratory, priority 2016, published 2019).

Experiment [1] deals with hMLH1 expression (methylation-silenced hMLH1 promoter) in HEK293T cells. Put plainly: hMLH1 mRNA levels by TaqMan qRT-PCR in transfected HEK293T cells. The experiment is classed as cell-based, human. The protocol:
To test the system, HEK293T cells were transfected with Casilio-ME components including Ct or Nt-fusion TET1-effector and a combination of 3 or 2 sgRNAs. Relative levels of hMLH1 mRNA were determined in TaqMan assays by using RNA extracted from cells 60 hours post-transfection and GAPDH as endogenous control for normalization of qRT-PCR measurements.
Cell culture and transfection. HEK293T cells were cultivated in Dulbecco's modified Eagle's medium (DMEM)(Sigma) with 10% fetal bovine serum (FBS)(Lonza), 4% Glutamax (Gibco), 1% Sodium Pyruvate (Gibco) and penicillin-streptomycin (Gibco) in an incubator set to 37° C. and 5% CO2. When indicated cells were treated with 2.5 μM or 5 μM 5-Azacytidine (sigma) as indicated with a daily change of medium containing freshly diluted drug. Cells were seeded into 12-well plates at 150,000 cells per well the day before being transfected with 100 ng of dCas9 construct, 100 ng of modified sgRNA construct and 200 ng of PUF-fusion with Attractene transfection reagent according to manufacturer's instructions (Qiagen). In dCas9-direct fusion experiments, cells were transfected with 200 ng dCas9-fusion constructs and 200 ng of modified sgRNA constructs. Transfected cells were harvested 60 hours after transfection, or otherwise indicated, and cell pellets were used for extractions of RNA, genomic DNA and protein.
Quantitative RT-PCR analysis. Cells were harvested, washed with Dulbecco's phosphate-buffered saline (dPBS), centrifuged at 125×g for 5 min and then the flash-frozen pellets were stored at −80° C. RNA was extracted using RNeasy Plus Mini Kit according to the manufacturer's instructions (Qiagen). cDNA libraries were made using Applied Biosystems High Capacity RNA-to-cDNA kit with 200 ng to 1 μg of RNA. TaqMan gene expression assays (Applied Biosystems) were designed using GAPDH (Hs03929097, VIC) as endogenous control and hMLH1 (Hs00179866, FAM) as target. TaqMan Universal Master Mix II, with UNG (Applied Biosystems) was used for Quantitative PCR (qPCR), with 2 μl of diluted cDNA used for each reaction. Activation was analyzed with the Applied Biosystems ViiA7 instrument. Gene expression levels were calculated by “delta delta Ct” algorithm and normalized to control samples.
HEK293T cells were cultivated in Dulbecco's modified Eagle's medium (DMEM) (Sigma) with 10% fetal bovine serum (FBS) (Lonza), 4% Glutamax (Gibco), 1% Sodium Pyruvate (Gibco) and penicillin-streptomycin (Gibco) in an incubator set to 37° C. and 5% CO2. Cells were seeded into 12-well plates at 150,000 cells per well the day before being transfected with 100 ng of dCas9 construct, 100 ng of modified sgRNA construct and 200 ng of PUF-fusion with Attractene transfection reagent according to manufacturer's instructions (Qiagen). Transfected cells were harvested 3 days after transfection, or otherwise indicated, and cell pellets were used for RNA extractions.
Cells were harvested, washed with Dulbecco's phosphate-buffered saline (dPBS), centrifuged at 125×g for 5 min and then the flash-frozen pellets were stored at −80° C. RNA was extracted using RNeasy Plus Mini Kit according to the manufacturer's instructions (Qiagen). cDNA libraries were made using Applied Biosystems High Capacity RNA-to-cDNA kit with 200 ng to 2 μg of RNA. TaqMan gene expression assays (Applied Biosystems) were designed using GAPDH (Hs03929097, VIC) as endogenous control and hMLH1 (Hs00179866, FAM) as target. TaqMan Universal Master Mix II, with UNG (Applied Biosystems) was used for Quantitative PCR (qPCR), with 2 μl of diluted cDNA used for each reaction. Activation was analyzed with the Applied Biosystems ViiA7 instrument. Gene expression levels were calculated by “delta delta Ct” algorithm and normalized to control samples.

Experiment [2] deals with MLH1 protein in HEK293T cells. Put plainly: Western blot of MLH1 protein with anti-hMLH1 monoclonal antibody. The experiment is classed as cell-based, human. The settings on record: HEK293T collected 3 day after transfection. Here is the method:
To determine the effect of Casilio-ME targeting on MLH1 protein synthesis, Western blot analyses were performed on total protein extracted from HEK293T transfected cells as well as untransfected HEK293 and AzaC-treated HEK293T cells using anti-hMLH1 monoclonal antibody. […] Casilio-ME-mediated induction of MLH1 synthesis is still remarkable and could be improved by, for example, tilling multiple guide RNAs to augment the range and efficiency of CpG demethylation to achieving better activation of hMLH1 expression.
Western blot analysis. Protein from cell extracts (30 μg) were separated by electrophoresis on 10% SDS-polyacrylamide gels and then transferred to nitrocellulose membranes at 100 V for 1 hour using Bjerrum Schafer-Nielsen Buffer with SDS. Blocked membrane in 5% Blotting-Grade Blocker (BioRad) in TBS-T were then incubated overnight at 4° C. with the indicated antibodies, and the protein bands were detected using Horseradish peroxidase-conjugated secondary antibodies and Clarity Western ECL Substrate according to manufacturer's instructions (BioRad). Gels were imaged using a G:Box (Syngene).

B1: GADD45A-PUFa-TET1(CD): GADD45A at N-terminus of PUFa-TET1(CD); SEQ ID NO:104 (protein)
chain: MTLEEFSAGEQKTERMDKVGDALEEVLSKALSQRTITVGVYEAAKLLNVDPDNVVLCLLAADEDDDRDVALQIHFTLIQAFCCENDINILRVSNPGRLAELLLLETDAGPAASEGAEQPPDLHCVLVTNPHSSQWKDPALSQLICFCRESRYMDQWVPVINLPERSRTGAATMIDGGGGSDPKKKRKVDPKKKRKVDPKKKRKVGSTGSRNDGGGGSGGGGSGGGGSGRAGILPPKKKRKVSRGRSRLLEDFRNNRYPNLQLREIAGHIMEFSQDQHGSRFIQLKLERATPAERQLVFNEILQAAYQLMVDVFGNYVIQKFFEFGSLEQKLALAERIRGHVLSLALQMYGSRVIEKALEFIPSDQQNEMVRELDGHVLKCVKDQNGNHVVQKCIECVQPQSLQFIIDAFKGQVFALSTHPYGCRVIQRILEHCLPDQTLPILEELHQHTEQLVQDQYGNYVIQHVLEHGRPEDKSKIVAEIRGNVLVLSQHKFASNVVEKCVTHASRTERAVLIDEVCTMNDGPHSALYTMMKDQYANYVVQKMIDVAEPGQRKIVMHKIRPHIATLRKYTYGKHILAKLEKYYMKNGVDLGDPKKKRKVDPKKKRKVGGRGGGGSGGGGSGGGGSGPAELPTCSCLDRVIQKDKGPYYTHLGAGPSVAAVREIMENRYGQKGNAIRIEIVVYTGKEGKSSHGCPIAKWVLRRSSDEEKVLCLVRQRTGHHCPTAVMVVLIMVWDGIPLPMADRLYTELTENLKSYNGHPTDRRCTLNENRTCTCQGIDPETCGASFSFGCSWSMYFNGCKFGRSPSPRRFRIDPSSPLHEKNLEDNLQSLATRLAPIYKQYAPVAYQNQVEYENVARECRLGSKEGRPFSGVTACLDFCAHPHRDIHNMNNGSTVVCTLTREDNRSLGVIPQDEQLHVLPLYKLSDTDEFGSKEGMEAKIKSGAIEVLAPRRKKRTCFTQPVPRSGKKRAAMMTEVLAHKIRAVEKKPIPRIKRKNNSTTTNNSKPSSLPTLGSNTETVQPEVKSETEPHFILKSSDNTKTYSLMPSAPHPVKEASPGFSWSPKTASATPAPLKNDATASCGFSERSSTPHCTMPSGRLSGANAAAADGPGISQLGEVAPLPTLSAPVMEPLINSEPSTGVTEPLTPHQPNHQPSFLTSPQDLASSPMEEDEQHSEADEPPSDEPLSDDPLSPAEEKLPHIDEYWSDSEHIFLDANIGGVAIAPAHGSVLIECARRELHATTPVEHPNRNHPTRLSLVFYQHKNLNKPQHGFELNKIKFEAKEAKNKKMKASEQKDQAANEGPEQSSEVNELNQIPSHKALTLTHDNVVTVSPYALTHVAGPYNHWVID
For B1, in experiment [1] (GADD45A two-in-one effectors, HEK293T, TaqMan), the “enhancement of hMLH1 expression relative to PUFa-TET1(CD) alone” value is “approximately 9 fold”. In addition, the “ranking of activation among GADD45A and TET1(CD) fusion configurations” value in experiment [1] (methylation-silenced hMLH1) is “highest activity”. Also, in experiment [2], the “MLH1 protein amount by Western blot (whole cell extracts)” value was “higher protein amounts”.
